The record followed here is article PMC11892261, “NONO interacts with nuclear PKM2 and directs histone H3 phosphorylation to promote triple-negative breast cancer metastasis” (Journal of Experimental & Clinical Cancer Research : CR, 2025).

The labels stand for the following.
B1: GST-NONO fragment F4 (229-471 aa) (domain or fragment, UniProt Q15233 229-471, looked up)
chain: QLDDEEGLPEKLVIKNQQFHKEREQPPRFAQPGSFEYEYAMRWKALIEMEKQQQDQVDRNIKEAREKLEMEMEAARHEHQVMLMRQDLMRRQEELRRMEELHNQEVQKRKQLELRQEEERRRREEEMRRQQEEMMRRQQEGFKGTFPDAREQEIRMGQMAMGGAMGINNRGAMPPAPVPAGTPAPPGPATMMPDGTLGLTPPTTERFGQAATMEGIGAIGGTPPAFNRAAPGAEFAPNKRRRY
notes: NONO residues 229-471, from the pGEX-6P-1 plasmid; also called GST-NONO F4; source: E. coli BL21, purified (glutathione S-transferase beads)
B2: GST-PKM2 fragment F4 (390-531 aa) (domain or fragment, UniProt P14618 390-531, looked up)
chain: YHLQLFEELRRLAPITSDPTEATAVGAVEASFKCCSGAIIVLTKSGRSAHQVARYRPRAPIIAVTRNPQTARQAHLYRGIFPVLCKDPVQEAWAEDVDLRVNFAMNVGKARGFFKKGDVVIVLTGWRPGSGFTNTMRVVPVP
notes: PKM2 residues 390-531, from the pGEX-6P-1 plasmid; also called GST-PKM2 F4; source: E. coli BL21, purified (glutathione S-transferase beads)
B3: His-NONO fusion protein (natural protein, UniProt Q15233 1-471, looked up)
chain: MQSNKTFNLEKQNHTPRKHHQHHHQQQHHQQQQQQPPPPPIPANGQQASSQNEGLTIDLKNFRKPGEKTFTQRSRLFVGNLPPDITEEEMRKLFEKYGKAGEVFIHKDKGFGFIRLETRTLAEIAKVELDNMPLRGKQLRVRFACHSASLTVRNLPQYVSNELLEEAFSVFGQVERAVVIVDDRGRPSGKGIVEFSGKPAARKALDRCSEGSFLLTTFPRPVTVEPMDQLDDEEGLPEKLVIKNQQFHKEREQPPRFAQPGSFEYEYAMRWKALIEMEKQQQDQVDRNIKEAREKLEMEMEAARHEHQVMLMRQDLMRRQEELRRMEELHNQEVQKRKQLELRQEEERRRREEEMRRQQEEMMRRQQEGFKGTFPDAREQEIRMGQMAMGGAMGINNRGAMPPAPVPAGTPAPPGPATMMPDGTLGLTPPTTERFGQAATMEGIGAIGGTPPAFNRAAPGAEFAPNKRRRY
notes: NONO, from the pET28a plasmid; source: E. coli BL21, purified (nickel-nitrilotriacetic acid beads)
B4: full-length GST-NONO (natural protein, UniProt Q15233 1-471, looked up)
chain: B3 chain
notes: NONO, full length (fragments run to residue 471), from the pGEX-6P-1 plasmid; also called GST-NONO fusion protein; source: E. coli BL21, purified (glutathione S-transferase beads)

Common to all, as to conditions: both partners purified
In one assay the target is T1, His-PKM2 fusion protein (UniProt P14618 1-531).
T1 construct: PKM2, from the pET28a plasmid; source: E. coli BL21, purified (nickel-nitrilotriacetic acid beads)
In words: pull-down; GST pull-down: GST-NONO (full length or fragments) on glutathione-Sepharose beads mixed with His-PKM2 for 4 h at 4 °C, five washes, western blot. For orientation: A western blot detects proteins with antibodies after separation by electrophoresis.

The assay “His-NONO fusion protein” concerns the target B3. In words: pull-down; GST pull-down: GST-PKM2 (full length, fragments or mutants) incubated with His-NONO at 4 °C for 4 h, five washes, western blot.
The next assay deals with T2, GST-PKM2-W515A mutant (UniProt P14618 1-531, W515A).
T2 construct: PKM2 point mutant, from the pGEX-6P-1 plasmid; Probably made on the full-length GST-PKM2; source: E. coli BL21, purified (glutathione S-transferase beads)
T2 sequence (P14618 whole entry W515A): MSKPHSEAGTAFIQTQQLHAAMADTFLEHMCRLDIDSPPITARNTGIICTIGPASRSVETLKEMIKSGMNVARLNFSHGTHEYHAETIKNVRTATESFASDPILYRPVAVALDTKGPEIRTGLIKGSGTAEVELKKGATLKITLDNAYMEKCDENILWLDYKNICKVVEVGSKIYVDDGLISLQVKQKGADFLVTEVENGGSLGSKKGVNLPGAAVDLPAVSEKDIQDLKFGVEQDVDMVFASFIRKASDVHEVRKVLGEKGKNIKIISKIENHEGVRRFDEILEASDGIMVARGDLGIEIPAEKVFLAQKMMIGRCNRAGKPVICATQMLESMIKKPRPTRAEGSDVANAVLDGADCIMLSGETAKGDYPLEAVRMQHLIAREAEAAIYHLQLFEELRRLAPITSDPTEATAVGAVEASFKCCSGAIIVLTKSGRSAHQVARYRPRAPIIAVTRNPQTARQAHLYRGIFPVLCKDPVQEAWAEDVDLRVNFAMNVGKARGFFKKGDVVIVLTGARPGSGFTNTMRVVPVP
The assay is described as above.

A further assay deals with T3, GST-PKM2-R400A mutant (UniProt P14618 1-531, R400A).
T3 construct: PKM2 point mutant, from the pGEX-6P-1 plasmid; Probably made on the full-length GST-PKM2; source: E. coli BL21, purified (glutathione S-transferase beads)
Described as above.

The next assay addresses T4, GST-PKM2-T412A mutant (UniProt P14618 1-531, T412A).
T4 construct: PKM2 point mutant, from the pGEX-6P-1 plasmid; Probably made on the full-length GST-PKM2; source: E. coli BL21, purified (glutathione S-transferase beads)
Described as above.

In another assay the target is T5, GST-PKM2-D476A mutant (UniProt P14618 1-531, D476A).
T5 construct: PKM2 point mutant, from the pGEX-6P-1 plasmid; Probably made on the full-length GST-PKM2; source: E. coli BL21, purified (glutathione S-transferase beads)
The description is as above.

Assay [1] has as its target T6, full-length GST-PKM2, wild type (UniProt P14618 1-531).
T6 construct: PKM2, full length (fragments run to residue 531), from the pGEX-6P-1 plasmid; also called GST-PKM2 WT; PKM2-WT; source: E. coli BL21, purified (glutathione S-transferase beads)
The description is as above.

The target in a further assay is T7, GST-PKM2-S406A mutant (UniProt P14618 1-531, S406A).
T7 construct: Probably made on the full-length GST-PKM2; source: E. coli BL21, purified (glutathione S-transferase beads)
The description is as above.

The next assay deals with T8, GST-PKM2-D487A mutant (UniProt P14618 1-531, D487A).
T8 construct: PKM2 point mutant, from the pGEX-6P-1 plasmid; Probably made on the full-length GST-PKM2; source: E. coli BL21, purified (glutathione S-transferase beads)
The assay is described as above.

In the next assay the target is T9, GST-PKM2-R526A mutant (UniProt P14618 1-531, R526A).
T9 construct: PKM2 point mutant, from the pGEX-6P-1 plasmid; Probably made on the full-length GST-PKM2; source: E. coli BL21, purified (glutathione S-transferase beads)
T9 sequence (P14618 whole entry R526A): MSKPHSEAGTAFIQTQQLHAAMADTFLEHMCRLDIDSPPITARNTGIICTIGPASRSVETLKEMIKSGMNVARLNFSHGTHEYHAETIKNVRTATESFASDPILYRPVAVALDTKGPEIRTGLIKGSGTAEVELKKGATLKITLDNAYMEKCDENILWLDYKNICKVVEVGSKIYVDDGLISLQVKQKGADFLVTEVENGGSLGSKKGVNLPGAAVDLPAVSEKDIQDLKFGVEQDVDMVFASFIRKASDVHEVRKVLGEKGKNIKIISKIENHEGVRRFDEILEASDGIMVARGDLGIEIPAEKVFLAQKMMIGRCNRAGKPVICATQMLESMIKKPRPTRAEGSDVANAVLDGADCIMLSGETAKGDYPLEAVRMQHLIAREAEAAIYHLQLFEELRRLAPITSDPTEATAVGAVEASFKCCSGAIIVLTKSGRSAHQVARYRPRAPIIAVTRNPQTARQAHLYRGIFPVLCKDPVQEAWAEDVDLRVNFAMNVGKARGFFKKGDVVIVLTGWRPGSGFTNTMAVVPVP
The description is as above.

Turning to B1, the binding result with His-PKM2 fusion protein is on record as “binds”.

With B2, in the assay with His-NONO fusion protein, the binding result is recorded as “binds”.

As to B3, the binding result (with GST-PKM2-W515A mutant; with GST-PKM2-R400A mutant; with GST-PKM2-T412A mutant; with GST-PKM2-D476A mutant; in [1]; in the assay with GST-PKM2-S406A mutant) was “binds” each time. Moreover, the binding result with GST-PKM2-D487A mutant and with GST-PKM2-R526A mutant was “binds” throughout.

Regarding B4, the binding result with His-PKM2 fusion protein was “binds”.
